This note sets out measurements from the nanobody polyreactivity screen of Harvey et al. (2022).

This data set is described as follows: yeast display, Sf9 membrane polyspecificity reagent, FACS + sequencing; frameworks hold sequencing errors. The method in brief:
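A synthetic nanobody library was expressed on Saccharomyces cerevisiae BJ5465 by galactose induction for 36–48 hours. The library was stained for 1 hour at 4 °C with 10% biotinylated, detergent-solubilized Sf9 membrane reagent and enriched with streptavidin microbeads before FACS. Low and high (top ~1%) gates were set on anti-HA fluorescence for expression and streptavidin fluorescence for reagent binding, and each polyreactivity label reflects the gate of origin.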
“QVQLVESGGGLVQAVGSLRLSCAASGRTFRTYTMGWYRQAPGKERELVAAISRGGSTNYADSLKGRFTISRDNAKNTVYLQMNSLKPEDTAVYYCNAKASFWSPYDYWGQGTQVTVSS”: the “polyreactivity (PSR sort gate)” value is “high polyreactivity”.
The same measure for “QVQLVESGGGLVQAVGSLRLSCAASGRTFYSYAMGWYRQAPGKERELVAAISRTGGSTYYADSVKGRFTISLDNAKNTVYLQMNSLKPEDTAVYYCAAVYRRNEFGYWGQGTQVTVSS”: “high polyreactivity”; for “QVQLVESGGGLVQAVGSLRLSCAASGYTFVIYAMGWYRQAPGKERELVAAITTIGGRTYYADSVKGRFTISRDNAKNTVYLQMISLKPEDTAVYYCAADIRSNRLYDGGYWGLGTQVTVSS”: “low polyreactivity”.
In the case of “QVQLVESGGGLVQAVGSLRLSCADSGRIFYGYDMGWYRQAPGKERELVAAITWRGGTFYADSVKGRFTISRDNEKKTVYLQMNSLKPEDTAVYYCSARVSSYGRYDYWGQGTQVTVSS”, the “polyreactivity (PSR sort gate)” value is given as “high polyreactivity”.
Under “QVQLVESGGGLVQAVGSLRLSCDASGLTFNSNAMGWYIQAHGKDRELVATISRGGTTNYADSVKGRFTISRDNAKNTVYLQMNSLKPEDTAVYYCNALRGSRYDYWGQGTQVTVSS” stands “high polyreactivity”; under “QVQLVESGGGLVQAVGSLRLSGAASGSIFQYTAMGRYRQAPGKERELVAAISSRGGIRYYADSVKGRFTISRDNAKYTVFLQMNSLKPEDTAVYYCAAEAYYSDVRWSEYWGQGTQVTVSS”, “high polyreactivity”.
“QVQLVESGGGLVQAVGSLRLSSAASGFIFWYYAMGWYRQAPGKERELVAAISSGGGTNYADSVKGRFTISRDNAKNTVYLQMNSLKPEDYAVYYCAAYGPLTGYDYWGQGTQVTVSS”: the “polyreactivity (PSR sort gate)” value is “low polyreactivity”.
The same measure for “QVQLVESGGGLVQAVGSLSLICAASGSTFLKYTMGWYRQAPWKERELVAAISKSGGSTYYADSVKGRFTISRDNAKNTVYLQMNSLKPEDTAVYYCAKGRYWVSSYGYGYWVQGTQVTVSS”: “high polyreactivity”; for “QVQLVESGGGLVQEGCSLRLTCAASGSIFYYYAMGWYRQAPRKERELVATITWNGAGTFYADSVKGRFTISRDNAKNTVYLQMNSLKPEDTAVYYCAASWYGESGYDYWGQGTQVTVSS”: “low polyreactivity”.
Under “QVQLVESGGGLVQEGGILPLSCAASGRIFGTYAMGWYRQAPGKERELVAAISSSGTSTYYADSVKGRFTISRDNAKNTVYLPMNSLKPEDTAVYYCAARYPRTAYDYWGQCTQVTVSS” stands “low polyreactivity”; under “QVQLVESGGGLVQEGGILRLSCAASGLTFYGYAMGWYRQAPGKERELVAAITSGDSTYYADSVKGRFTISRDNAKNTVYLQMNSLKPEDTAVYYCAAVGGYPRYGYWGQGTQVTVSS”, “high polyreactivity”; under “QVQLVESGGGLVQEGGSLCLSCAASGIFVYNAMGWYRQAPGKEREFVAAINKSGASTFYADSVKGRFTISRDNAKNTVYLQMNSLKPEDTAVYYCNAGTLYYRYRWGHYYDSWGQGTQVTVSS”, “low polyreactivity”.
Regarding “QVQLVESGGGLVQEGGSLGLSCAASGFIFVRYAMGWYRQAPGKERELVATITRGGGTYYADSVKARFTISRDNAKNTVYLQMKRLKPVDTAVYYCNKRGYSRYTGFGLDSWGQGTQVTVSS”, the “polyreactivity (PSR sort gate)” value is reported as “high polyreactivity”.
Under “QVQLVESGGGLVQEGGSLLISCAASGSIVESYAMGWYRQAPGKEREWVAAITIRGASPYYADSVKGRFTISRDNAKNTVYLQMNSLKPEDTAVYYCNARWPGIGPIYDYWGQGTQVTVSS” stands “low polyreactivity”; under “QVQLVESGGGLVQEGGSLRIICAASGFTFYRYARGWYRQEPGKERELVAAISSHGDRTYYSDSVKGRFTISRDNAKNTVYLQMNSLKPEDTAVYFCNVETLYGYFLHFYLRYYHWGQGTQVTVSS”, “high polyreactivity”; under “QVQLVESGGGLVQEGGSLRLICAASGIIFYFYAMGWYRQAPGKERELVAAISSGGGSTYYADSVKGRFTISRDNAKNTVYLQMNSLKPEDTAVYYCAAKIGRNFDWGQGTQVTVSS”, “high polyreactivity”.
As for “QVQLVESGGGLVQEGGSLRLICAASGRTFVYNTMGWYRQAPGKERELVAAITRSGDSTYDADSVKGRFTISRDTAKITVYIHMKSLKPDDTGVYYCNAVSNRYWLKDYWGQGTQVTVSS”, the “polyreactivity (PSR sort gate)” value is “high polyreactivity”.
On to “QVQLVESGGGLVQEGGSLRLICAASGRTFYKNAMGWYRPAPAKERELVAAISSRGGRTTYADSLKGRYTISRDNAKNTVYLQMNSLKTEDTAVYYCAADWEYDYWGQGTHVTVSS”, for which the “polyreactivity (PSR sort gate)” value was “high polyreactivity”.
Under “QVQLVESGGGLVQEGGSLRLICAASGSTFAANTMGWYRQEPGKERELVAAITDRGGSTYYADSVKGRFTISRDNAKNTVYLQMITLKPEDTAVYYSAAERPPYGYLVVGYVSTQYYYWGQGTQVTVSS” stands “low polyreactivity”; under “QVQLVESGGGLVQEGGSLRLICSASGIILGPYAMGWYRQAPGKESELVSAISWRGGSTYYADSVKGRFTISRDNAKNTVYLQMNSLKPEDTAVYYCATASRTSRTGWAVYYWGQGTQVTVSS”, “high polyreactivity”.
Take “QVQLVESGGGLVQEGGSLRLRWAASGFIFDTYAMGWYRQAPGKERELVAGISDGGSTYYADSVKGRFTISRDNAKNTVYLQLNSLKPEDTAVYYCAAQGEYGFTAYYPGVSWGQGTQVTLSS”: the “polyreactivity (PSR sort gate)” value was “low polyreactivity”.
The same measure for “QVQLVESGGGLVQEGGSLRLSCAASGFIVNRYAMGWYRQAPGKERELVAAITGSGSRTYYADSVKGRFTISRDNAKNTVYLHMNSLKPEATAVYYCNTDRRPTADFGYWGQGTQVTVAS”: “high polyreactivity”; for “QVQLVESGGGLVQEGGSLRLSCAASGFTFARYAMGWYRQSPGKERELVARISSRGGSTNFADSVKGRFTISRDNAKNTVYLQMNSLKPEDTAVYYCAKYYSSKYYYWGQGTQVTVSS”: “high polyreactivity”; for “QVQLVESGGGLVQEGGSLRLSCAASGFTLYGYTMGWYRQAPGKERELVAAISGSGGRTYYADSVKGRFTISRDNAKNTVYLQMNSLKPEVTEVYYCAADSRGTWYGYDYWGQGTQVTVSS”: “high polyreactivity”.
The same measure for “QVQLVESGGGLVQEGGSLRLSCAASGGIFFPNAMGWYRQAPGKERELVAAISWSAGSTYYADSVKGRFTISRDNAKNTVYLQMKSLKPEDTAVYYCAAAGSNYTVWFGYYYWGQVTQVTVSS”: “low polyreactivity”.
For the sequence “QVQLVESGGGLVQEGGSLRLSCAASGGIFGEYDMGGYRQAPGKERELVAAINWSGGSTYYADSVKGRFTISRDNAKNSVYLQMNSLKPEDTAVYYSAADRGYPRKVDYWGQVTQVTVSS”, the “polyreactivity (PSR sort gate)” value is reported as “low polyreactivity”.
Under “QVQLVESGGGLVQEGGSLRLSCAASGGIFSAYAMGWYRQAPGKERELVAAISRTGGSTYYADSVKGRFTISRDNAKITVYLQMTSLKPEDTAVYYCNADYRRYPEFDYWGQGTQVTVSS” stands “high polyreactivity”; under “QVQLVESGGGLVQEGGSLRLSCAASGGTFAYAMGWYRQAPGKERELVAAITWRGGDTYADSVKGRFTISRDNAKNTVYLQMNSLKPEDTAVYYCAAEFRDVSSNGYDYWGQGTQVTVSS”, “low polyreactivity”.
In the case of “QVQLVESGGGLVQEGGSLRLSCAASGGTFYAYTMGWYRPAPGTERELVAAISRSGGSTYYADSVKGRITISRDTAKNSVYLQINSLKPEDTAVYYCAAVESGADYYYWGQGTQVTVSS”, the “polyreactivity (PSR sort gate)” value is recorded as “high polyreactivity”.
The same measure for “QVQLVESGGGLVQEGGSLRLSCAASGIIFPVYDMGWYRQAPGKERELVASITDSGGSTSYADSVKGRFTLSRDNAKNTVYLQMNSLKPEDTAVYYCAVTDSDTNYYGYLSYDYWGQGTQVTVSS”: “low polyreactivity”.
Under “QVQLVESGGGLVQEGGSLRLSCAASGIIFRWYAMGWYRQAPGKERELVAAITSDGNTYYADSVKGRFTISRDNAKNTVYLQMNSLKPVDTAVYYCAARLSYYSRMNYWGQGTQVTVSS” stands “high polyreactivity”.
Under “QVQLVESGGGLVQEGGSLRLSCAASGILVYNAMGWYRQAPGTERELVAAISARGGRTYYADSVKGRFTISRDNAQNTDSLQMNSLKPEDTAVYYCASRSSKSRTYDYWGQGTQVTVSS” stands “high polyreactivity”; under “QVQLVESGGGLVQEGGSLRLSCAASGITFSRNAMGWYRPAPGKERELVATITSGGSTNYADSVKGRFTISRDNAKNNVYLQMNSLKPEDTAVYYCNAVWNTFISGRSYDYWGQGTQVTVSS”, “low polyreactivity”.
For the sequence “QVQLVESGGGLVQEGGSLRLSCAASGLIFGAYALGWYRQAPGKERELVAAISGRGGSTYYADSVKGRFTISHDNAKNTVYLQMNSLKPEDNAVYYCAAPWRYTYYYWGQGTQVTVSS”, the “polyreactivity (PSR sort gate)” value is given as “high polyreactivity”.
With “QVQLVESGGGLVQEGGSLRLSCAASGLIFNRYDMGWYRQAPGKVTELVAAITSRGGRTYYADSVKGRFTISLDNAKTTVYLQMNSLKPEDTAVYYCNRTPTGSSLYGMDYWGQGTQVTVSS”, the “polyreactivity (PSR sort gate)” value is listed as “high polyreactivity”.
For “QVQLVESGGGLVQEGGSLRLSCAASGLIFSYYAMGWYRQAPGKERELVAAISWSGASTFYADSVKGRFTISRDNAKNTVYLQMNSLKPEDTAVYYCAADTYGKTYYYWGQGTLVTVSS”, the “polyreactivity (PSR sort gate)” value is on record as “low polyreactivity”.
The same measure for “QVQLVESGGGLVQEGGSLRLSCAASGLTFPYYAMGWYRQAPGKERELVAGISDSGGSTYYADSVKGRFTISRDNAKNTVYVQMNSLKPEDTAVYYCAAQGVDSYYENVYWGQGSQVTVSS”: “high polyreactivity”; for “QVQLVESGGGLVQEGGSLRLSCAASGRIFPYYAMGWYRQAPGKERELVAAITSGSRTYYADSVKGRFTISRDNAKNTVYLQMNSLKPEHTAVYYCNAVGGNSAYVYWGQGTQVTVSS”: “high polyreactivity”; for “QVQLVESGGGLVQEGGSLRLSCAASGRIFQWNAMGWYRQAPGKERELVATISSRGGSTYYADSVKGRFTISRDNAKNTVYLQMNSLKPEDTAVYYCAARYYAKYRSYDYWGQGTQVTVSS”: “high polyreactivity”.
Under “QVQLVESGGGLVQEGGSLRLSCAASGRIFRRYTMGWYRQAPGKERELVAVITSGGNTHYADSVKGRFTISRDNAKNTVYLQMNSLKPEDTAVYYCAARHYRGSNDYWGQGTQVTVSS” stands “high polyreactivity”.
On to “QVQLVESGGGLVQEGGSLRLSCAASGRIFWSYAMGWYRQAPGKERELVAAITWRTGRTYYADSVKGRFTISRDNAKNTVYLQMNSLKPEDTAVYYCAAEGYLGGQSYNGLNYDSWGQGTQVTVSS”, for which the “polyreactivity (PSR sort gate)” value was “low polyreactivity”.
